Source: the supplement of paper PMC10724198
± gives the standard deviation of the averaged measurements.

Legend:
[1] = test system: Saccharomyces cerevisiae; experiment: protein stability index of tFT-peptide fusion (C-terminal peptide) (PSI (0-1 scale)); higher = more stable (slower turnover)
Description: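 MPS profiling in S. cerevisiae of the tFT-X12 degron library: putative degron peptides plus stable controls, 12 aa, fused to the C-terminus of a sfGFP-mCherry timer. Cells are FACS-sorted into 8 mCherry/sfGFP bins and deep-sequenced. PSI runs from 0 (unstable) to 1 (stable). Backgrounds are wild type, das1Δ and doa10Δ at 30 °C, and wild type, das1Δ, cdc34-1 and cdc53-1 at 37 °C; 2-3 technical replicates each.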

[2] = test system: Saccharomyces cerevisiae; experiment: as above; conditions: genetic background: wild type; temperature: 30 C
[3] = genetic background: cdc34-1, temperature: 37 C
[4] = genetic background: cdc53-1, temperature: 37 C
[5] = genetic background: das1 deletion, temperature: 30 C
[6] = genetic background: das1 deletion, temperature: 37 C
[7] = genetic background: doa10 deletion, temperature: 30 C
[8] = genetic background: wild type, temperature: 30 C
[9] = genetic background: wild type, temperature: 37 C
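Note: PSI is a weighted mean of sequencing reads over stability bins, variants kept only with over 10 reads, mCherry proximal and sfGFP distal, peptide attached via GGGS linker.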

| Sequence | protein stability index [1, 3] | protein stability index [1, 4] | protein stability index [1, 5] | protein stability index [1, 6] | protein stability index [1, 7] | protein stability index [1, 8] | protein stability index [1, 9] | protein stability index [2] |
| --- | --- | --- | --- | --- | --- | --- | --- | --- |
| SWGRGADRWRRA | 0.645 ± 0.042 | 0.7218 ± 0.0025 | 0.649 ± 0.017 | 0.7267 ± 0.0056 | 0.156 ± 0.019 | 0.195 ± 0.016 | 0.4725 ± 0.0013 | 0.319 ± 0.056 |
| DRYSFYGYVVVL | 0.587 ± 0.021 | 0.632 ± 0.05 | 0.512 ± 0.042 | 0.66198 ± 4.4e-05 | 0.1728 ± 0.0011 | 0.186 ± 0.02 | 0.291 ± 0.041 | 0.261 ± 0.0095 |
| RVDVSVLWNRRS | 0.655 ± 0.045 | 0.75995 ± 0.0007 | 0.669 ± 0.0086 | 0.744 ± 0.028 | 0.284 ± 0.026 | 0.312 ± 0.038 | 0.511 ± 0.013 | 0.4857 ± 0.0047 |
| HLYITGIIRKIT | 0.519 ± 0.027 | 0.619 ± 0.11 | 0.668 ± 0.054 | 0.695 ± 0.016 | 0.0875 ± 0.0033 | 0.165 ± 0.024 | 0.126 ± 0.029 | 0.179 ± 0.036 |
| LVVGCFLTFCFG | 0.241 ± 0.013 | 0.366 ± 0.012 | 0.26 ± 0.028 | 0.441 ± 0.0089 | 0.212 ± 0.0024 | 0.236 ± 0.038 | 0.402 ± 0.0085 | 0.315 ± 0.028 |
| RVSECVSVVGWM | 0.678 ± 0.082 | 0.723 ± 0.025 | 0.624 ± 0.019 | 0.737 ± 0.011 | 0.619 ± 0.024 | 0.633 ± 0.0064 | 0.7147 ± 0.0044 | 0.562 ± 0.14 |
| YTLWFLAWGLVF | 0.262 ± 0.036 | 0.308 ± 0.016 | 0.241 ± 0.033 | 0.3865 ± 0.0028 | 0.209 ± 0.011 | 0.22 ± 0.034 | 0.36 ± 0.025 | 0.315 ± 0.023 |
| LCWRLCRFWWVG | 0.75 ± 0.068 | 0.8494 ± 0.0062 | 0.691 ± 0.033 | 0.829 ± 0.014 | 0.255 ± 0.0076 | 0.254 ± 0.024 | 0.424 ± 0.013 | 0.363 ± 0.016 |
| LIIVFGFTSILR | 0.441 ± 0.02 | 0.572 ± 0.018 | 0.36 ± 0.043 | 0.526 ± 0.018 | 0.355 ± 0.015 | 0.328 ± 0.037 | 0.509 ± 0.048 | 0.419 ± 0.093 |
| GCVLVFFLRLDL | 0.4328 ± 0.0006 | 0.538 ± 0.067 | 0.354 ± 0.034 | 0.557 ± 0.034 | 0.3466 ± 0.0014 | 0.365 ± 0.0072 | 0.562 ± 0.01 | 0.49 ± 0.072 |
| FLCWLSFIPLLS | 0.203 ± 0.0093 | 0.164 ± 0.007 | 0.293 ± 0.034 | 0.366 ± 0.0095 | 0.418 ± 0.019 | 0.256 ± 0.017 | 0.32 ± 0.015 | 0.38 ± 0.02 |
| RVPCCLSFVPVC | 0.508 ± 0.032 | 0.5131 ± 0.004 | 0.394 ± 0.026 | 0.5682 ± 0.0047 | 0.363 ± 0.0097 | 0.405 ± 0.027 | 0.5362 ± 0.0037 | 0.452 ± 0.033 |
| EMSIISVLRVIS | 0.61 ± 0.013 | 0.641 ± 0.017 | 0.489 ± 0.02 | 0.651 ± 0.021 | 0.181 ± 0.011 | 0.218 ± 0.034 | 0.395 ± 0.015 | 0.369 ± 0.035 |
| CCMLCVVAWSGV | 0.424 ± 0.044 | 0.517 ± 0.097 | 0.303 ± 0.027 | 0.5581 ± 0.0018 | 0.257 ± 0.0051 | 0.295 ± 0.056 | 0.524 ± 0.0054 | 0.359 ± 0.0042 |
| FCCLVLDLEVSG | 0.4314 ± 0.0037 | 0.548 ± 0.019 | 0.36 ± 0.032 | 0.5627 ± 0.0037 | 0.331 ± 0.0069 | 0.372 ± 0.016 | 0.541 ± 0.0084 | 0.424 ± 0.0079 |
| ALEIIRLSHRLC | 0.498 ± 0.048 | 0.689 ± 0.022 | 0.618 ± 0.008 | 0.731 ± 0.009 | 0.0821 ± 0.0079 | 0.0791 ± 0.016 | 0.113 ± 0.0018 | 0.127 ± 0.011 |
| SSLLLLCCLLVG | 0.365 ± 0.029 | 0.427 ± 0.015 | 0.277 ± 0.032 | 0.437 ± 0.01 | 0.248 ± 0.013 | 0.263 ± 0.03 | 0.403 ± 0.014 | 0.332 ± 0.01 |
| GLVSCWIDPSMA | 0.697 ± 0.0081 | 0.77 ± 0.032 | 0.635 ± 0.0088 | 0.73 ± 0.025 | 0.597 ± 0.021 | 0.628 ± 0.03 | 0.708 ± 0.023 | 0.714 ± 0.04 |
| LVHLVLYVAVFC | 0.317 ± 0.043 | 0.4112 ± 0.0015 | 0.292 ± 0.048 | 0.409 ± 0.0046 | 0.2877 ± 0.0014 | 0.309 ± 0.013 | 0.398 ± 0.0049 | 0.283 ± 0.074 |
